Measured values: patent US20050118601A1, “Enhancer sequence of the 5-aminolevulinic acid synthase gene” (priority 2002, published 2005)

Experiments:
CAR = target: T1, CAR (Homo sapiens, UniProt Q14994 Q14994:1-352); assay: EMSA; CAR alone; conditions: tags: TNT reticulocyte lysate; label: radiolabel
T1 sequence: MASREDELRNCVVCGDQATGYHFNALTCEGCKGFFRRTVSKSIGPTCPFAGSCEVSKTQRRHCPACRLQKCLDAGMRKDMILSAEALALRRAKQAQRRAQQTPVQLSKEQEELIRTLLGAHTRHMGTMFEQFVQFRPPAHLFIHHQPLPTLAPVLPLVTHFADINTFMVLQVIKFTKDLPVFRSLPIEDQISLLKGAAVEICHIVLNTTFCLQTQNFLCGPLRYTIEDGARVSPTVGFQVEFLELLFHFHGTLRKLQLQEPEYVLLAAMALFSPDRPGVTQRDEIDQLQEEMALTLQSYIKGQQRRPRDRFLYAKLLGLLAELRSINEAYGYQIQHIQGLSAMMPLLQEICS
Source text: (§1) FIG. 19 depicts the results of an electrophoretic mobility shift assay, assaying the ability of human PXR and human CAR to bind to the hA174 and hA240 elements. Binding of these nuclear receptors happens in a heterodimeric state with the human 9-cis retinoic acid receptor RXRα. From expression plasmids encoding human RXRα, […] or CAR, receptor protein was made in vitro using the TNT reticulocyte lysate coupled transcription/translation system (Promega Corp.).
(§2) Lanes 1-4: Wildtype hA174 was incubated with no receptor (mock transcription/translation) or with RXRα, PXR or CAR alone. No complex is observed using single receptors. Lanes 5 and 7: Wild-type hA174 was incubated with RXRα and PXR or RXRα and CAR, upon which complex formation between radiolabeled probe and protein is observed. Lanes 6 and 8: Same conditions as in lanes 5 and 7, but instead of wild-type hA174, a radiolabeled probe was used where the half-site 2 was mutated. No complex is formed anymore.

PXR/RXRalpha heterodimer = PXR/RXRalpha heterodimer (Homo sapiens, UniProt O75469;P19793 O75469:1-434,P19793:1-462); assay: EMSA; conditions: tags: TNT reticulocyte lysate; label: radiolabel
Source text: as §1, §2

CAR/RXRalpha heterodimer = CAR/RXRalpha heterodimer (Homo sapiens, UniProt Q14994;P19793 Q14994:1-352,P19793:1-462); assay: EMSA; conditions: tags: TNT reticulocyte lysate; label: radiolabel
Source text: as §1, §2

RXRalpha = RXRalpha (Homo sapiens, UniProt P19793 P19793:1-462); assay: EMSA; RXRalpha alone; conditions: tags: TNT reticulocyte lysate; label: radiolabel
Source text: as §1, §2

PXR = target: T2, PXR (Homo sapiens, UniProt O75469 O75469:1-434); assay: EMSA; PXR alone; conditions: tags: TNT reticulocyte lysate; label: radiolabel
T2 sequence: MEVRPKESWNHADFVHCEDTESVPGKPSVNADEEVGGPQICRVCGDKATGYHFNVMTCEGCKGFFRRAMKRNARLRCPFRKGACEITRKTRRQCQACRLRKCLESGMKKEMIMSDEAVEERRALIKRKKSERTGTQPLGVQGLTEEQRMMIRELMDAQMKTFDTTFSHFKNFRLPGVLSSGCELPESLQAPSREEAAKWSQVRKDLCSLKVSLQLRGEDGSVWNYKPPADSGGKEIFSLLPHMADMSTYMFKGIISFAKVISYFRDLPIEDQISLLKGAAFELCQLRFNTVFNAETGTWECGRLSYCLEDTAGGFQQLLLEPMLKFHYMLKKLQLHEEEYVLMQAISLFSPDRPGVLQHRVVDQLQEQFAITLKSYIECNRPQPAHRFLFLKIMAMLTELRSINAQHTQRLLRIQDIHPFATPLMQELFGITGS
Source text: as §1, §2

[1] = target: T3, human 9-cis retinoic acid receptor RXRα (human, UniProt P19793 1-462); assay: electrophoretic mobility shift, hA240 probe; no complex with single receptors (FIG. 19B)
T3 construct: also called human RXRα
T3 sequence (looked up): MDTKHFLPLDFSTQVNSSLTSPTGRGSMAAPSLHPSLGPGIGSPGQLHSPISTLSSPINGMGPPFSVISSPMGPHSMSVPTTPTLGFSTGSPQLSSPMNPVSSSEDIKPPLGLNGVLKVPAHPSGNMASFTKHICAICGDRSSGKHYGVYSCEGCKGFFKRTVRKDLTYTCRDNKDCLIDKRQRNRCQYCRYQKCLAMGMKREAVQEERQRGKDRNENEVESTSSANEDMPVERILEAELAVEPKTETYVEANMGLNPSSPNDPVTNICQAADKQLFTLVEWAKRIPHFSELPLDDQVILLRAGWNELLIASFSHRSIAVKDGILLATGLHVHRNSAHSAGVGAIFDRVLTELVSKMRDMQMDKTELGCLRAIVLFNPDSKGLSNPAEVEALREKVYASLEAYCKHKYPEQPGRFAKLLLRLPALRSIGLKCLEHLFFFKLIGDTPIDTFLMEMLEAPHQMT
Source text: as §1
FIG. 19B: Instead of the hA174 fragment, wild-type or DR4-mutant hA240 fragment was radiolabeled and used as probe. Lanes 1-4: Wildtype hA240 was incubated with no receptor (mock transcription/translation) or with RXRα, PXR or CAR alone. No complex is observed using single receptors. Lanes 5 and 7: Wild-type hA240 was incubated with RXRα and PXR or RXRα and CAR, upon which complex formation between radiolabeled probe and protein is observed. Lanes 6 and 8: Same conditions as in lanes 5 and 7, but instead of wild-type probe, radiolabeled hA240DR4(2) mutant was used. No complex is formed.

CXR/RXR heterodimer [2] = target: T4, CXR/RXR heterodimer (Gallus gallus, UniProt A0A8V1AGS4;P28701 A0A8V1AGS4:1-375,P28701:1-467); assay: EMSA; supershifted by anti-RXR; conditions: tags: TNT T7 Quick Coupled; pSG5; label: 32P
T4 sequence (chain, as listed by the source): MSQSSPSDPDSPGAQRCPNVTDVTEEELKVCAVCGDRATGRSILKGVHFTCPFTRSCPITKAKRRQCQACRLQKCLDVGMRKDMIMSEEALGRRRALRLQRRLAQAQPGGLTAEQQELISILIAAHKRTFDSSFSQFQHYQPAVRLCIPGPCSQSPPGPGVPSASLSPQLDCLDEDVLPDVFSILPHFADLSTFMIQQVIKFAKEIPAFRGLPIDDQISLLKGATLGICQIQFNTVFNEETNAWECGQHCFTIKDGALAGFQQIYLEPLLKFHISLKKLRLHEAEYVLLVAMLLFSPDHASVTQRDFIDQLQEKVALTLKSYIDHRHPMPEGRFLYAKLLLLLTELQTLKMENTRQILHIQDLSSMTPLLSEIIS
Experimental: (§3) Radiolabelled ADRES wild type (lanes 1-5) and mutant (lanes 6-7) sequences were incubated with in vitro transcribed/translated CXR (lanes 3-7), chicken RXR (lanes 2 and 4-7) and anti-RXR antibody (lane 5 and 7), as indicated. Arrows depict the unbound probe, the shifted CXR-RXR-probe complex, and the supershifted CXR-RXR-probe-anti-RXR antibody complex;
(§4) Chicken CXR and RXR proteins were expressed using the TNT T7 Quick Coupled Translation System (Promega) according to the manufacturers protocol. Probes were labeled by Klenow reaction in the presence of radiolabeled [α-³²P]ATP and purified over a Biospin 6 chromatography column. A volume of labeled oligonucleotide corresponding to 100,000 cpm was used for each reaction in 10 mM Tris-HCL (8.0)/40 mM KCl/0.05% Nonidet P40′/6% glycerol (vol./vol.)/1 mM DTT containing 0.2 μg of poly(dI-dC) and 2.5 μl in-vitro synthesized proteins as described previously (2, 7). To test for supershifts, 0.5 μl monoclonal anti-mouse-RXR rabbit antibody (kindly provided by P. Chambon, Université Louis Pasteur, Illkirch, France) were added to the reaction mix. This antibody has been previously tested for interactions with chicken RXR in Western blots (data not shown). The reaction mix was incubated for 20 min at room temperature and electrophoresed on a 6% polyacrylamide gel in 0.5× Tris/borate/EDTA buffer followed by autoradiography.

RXR [3] = target: T5, RXR (Gallus gallus, UniProt P28701 P28701:1-467); assay: EMSA; RXR alone; conditions: tags: TNT T7 Quick Coupled; pSG5; label: 32P
T5 sequence: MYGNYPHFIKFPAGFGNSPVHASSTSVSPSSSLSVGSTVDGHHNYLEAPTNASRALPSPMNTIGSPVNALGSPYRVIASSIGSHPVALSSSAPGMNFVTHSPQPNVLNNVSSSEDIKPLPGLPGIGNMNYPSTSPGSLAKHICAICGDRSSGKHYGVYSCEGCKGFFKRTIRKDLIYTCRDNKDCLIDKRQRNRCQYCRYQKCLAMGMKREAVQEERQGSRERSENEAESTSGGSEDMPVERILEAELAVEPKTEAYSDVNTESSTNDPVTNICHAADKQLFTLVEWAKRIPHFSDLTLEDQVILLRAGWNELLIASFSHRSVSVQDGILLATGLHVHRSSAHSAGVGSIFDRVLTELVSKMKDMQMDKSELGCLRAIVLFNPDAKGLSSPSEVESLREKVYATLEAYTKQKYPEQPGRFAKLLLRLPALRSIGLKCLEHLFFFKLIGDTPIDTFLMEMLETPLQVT
Experimental: as §3, §4

CXR/RXR heterodimer [4] = target: T4, CXR/RXR heterodimer; assay: EMSA; supershifted by anti-RXR; 40 mM KCl, pH 8.0, poly(dI-dC), room temperature; conditions: tags: TNT T7 Quick Coupled; pSG5; label: 32P
Experimental: as §3, with “and mutant.” for “and mutant”, “incubated With” for “incubated with”, “antibody (Lane” for “antibody (lane”
as §4

RXR [5] = target: T5, RXR; assay: EMSA; RXR alone; conditions: tags: TNT T7 Quick Coupled; pSG5; label: 32P; remark: listed apart in the source
Experimental: as §3, with “and mutant.” for “and mutant”, “incubated With” for “incubated with”, “antibody (Lane” for “antibody (lane”
as §4

CXR/RXR heterodimer [6] = target: T4, CXR/RXR heterodimer; assay: EMSA; binding virtually eliminated; conditions: tags: TNT T7 Quick Coupled; pSG5; label: 32P
Experimental: as §3, with “and mutant.” for “and mutant”, “incubated With” for “incubated with”, “antibody (Lane” for “antibody (lane”
as §4

B1: hA174 (dsDNA)
DNA 1: GCGCAAAGTCAACACAAGCCTCTCCACCGTGTGTCCATGTTTATGTGTATGCGCTGTGCCCCGTCATGCCACCTGGACGCAGGGACTCCAGTGACCTCTCCTTGCACAAGCCTCTGCTGGTTTGGGAAAGATTGGCATGACATCAGCCAAGCTCTGGCCTTGCCTTTTTTCCCT
DNA 2: AGGGAAAAAAGGCAAGGCCAGAGCTTGGCTGATGTCATGCCAATCTTTCCCAAACCAGCAGAGGCTTGTGCAAGGAGAGGTCACTGGAGTCCCTGCGTCCAGGTGGCATGACGGGGCACAGCGCATACACATAAACATGGACACACGGTGGAGAGGCTTGTGTTGACTTTGCGC
B1: no binding (CAR); binds (PXR/RXRalpha heterodimer); binds (CAR/RXRalpha heterodimer). B1: no binding (RXRalpha); no binding (PXR).

B2: human pregnane X receptor (PXR) (receptor, UniProt O75469 1-434, looked up)
chain: MEVRPKESWNHADFVHCEDTESVPGKPSVNADEEVGGPQICRVCGDKATGYHFNVMTCEGCKGFFRRAMKRNARLRCPFRKGACEITRKTRRQCQACRLRKCLESGMKKEMIMSDEAVEERRALIKRKKSERTGTQPLGVQGLTEEQRMMIRELMDAQMKTFDTTFSHFKNFRLPGVLSSGCELPESLQAPSREEAAKWSQVRKDLCSLKVSLQLRGEDGSVWNYKPPADSGGKEIFSLLPHMADMSTYMFKGIISFAKVISYFRDLPIEDQISLLKGAAFELCQLRFNTVFNAETGTWECGRLSYCLEDTAGGFQQLLLEPMLKFHYMLKKLQLHEEEYVLMQAISLFSPDRPGVLQHRVVDQLQEQFAITLKSYIECNRPQPAHRFLFLKIMAMLTELRSINAQHTQRLLRIQDIHPFATPLMQELFGITGS
notes: also called human PXR; hPXR
B2: binds [1].

B3: 167 bp ADRES (dsDNA)
DNA 1: CTGCCTCCAGTCCTGAACTTTCTCTGCTGGGATGAGCAGAGTTCACGCTCGGCTGAACTCGTGACTGTGTCAACAGGGGGCATGAAGATCAGCACCAGGCAAAGGTGAGCGGAGTGCACAAGAATGAGGCAGAGACCTTTGGGACAAAGAGTTCCCCACCCGTGGGG
DNA 2: CCCCACGGGTGGGGAACTCTTTGTCCCAAAGGTCTCTGCCTCATTCTTGTGCACTCCGCTCACCTTTGCCTGGTGCTGATCTTCATGCCCCCTGTTGACACAGTCACGAGTTCAGCCGAGCGTGAACTCTGCTCATCCCAGCAGAGAAAGTTCAGGACTGGAGGCAG
B3: binds (CXR/RXR heterodimer [2]); no binding (RXR [3]).

B4: 176 bp ADRES (dsDNA)
DNA 1: GGGCTCCATCGGCCTCTTCAGGTTATTGCTATGTTCAACTCGTGTGACCTTCCTCCCTGTTTTCAAGGTTCTGATAACAAACTTCTAGGACAGCCTGGTGACCTTTGGCTCAGCTTCCTCTTTAAACTCCGGTGGCTTTTGCTTCATTGCCTAGTTGTTACCCAGCAGTAAAGATC
DNA 2: GATCTTTACTGCTGGGTAACAACTAGGCAATGAAGCAAAAGCCACCGGAGTTTAAAGAGGAAGCTGAGCCAAAGGTCACCAGGCTGTCCTAGAAGTTTGTTATCAGAACCTTGAAAACAGGGAGGAAGGTCACACGAGTTGAACATAGCAATAACCTGAAGAGGCCGATGGAGCCC
B4: binds (CXR/RXR heterodimer [4]); no binding (RXR [5]).

B5: 176 bp ADRES DR4-1/DR5 double mutant (dsDNA)
DNA 1: GGGCTCCATCGGCCTCTTCAGGTTATTGCTATGTTGGTATCGTGTCGAGTTCCTCCCTGTTTTCAAGGTTCTGATAACAAACTTCTAGGACAGCCTGGCTGCAGTTGGCGAATTCTCCTCTTTAAACTCCGGTGGCTTTTGCTTCATTGCCTAGTTGTTACCCAGCAGTAAAGATC
DNA 2: GATCTTTACTGCTGGGTAACAACTAGGCAATGAAGCAAAAGCCACCGGAGTTTAAAGAGGAGAATTCGCCAACTGCAGCCAGGCTGTCCTAGAAGTTTGTTATCAGAACCTTGAAAACAGGGAGGAACTCGACACGATACCAACATAGCAATAACCTGAAGAGGCCGATGGAGCCC
B5: no binding (CXR/RXR heterodimer [6]).
